These results are taken from PMC11574045, “A cofactor-induced repressive type of transcription factor condensation can be induced by synthetic peptides to suppress tumorigenesis” (The EMBO Journal, 2024).

The assay concerns HEK293FT cells transfected with TF library. Kind of assay: Screening of TF condensates based on fluorescent puncta. Format: cell-based. The settings on record: Figure 1B numerical data; TF library screen, one value per transcriptional factor. The method in brief:
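Cells were seeded onto plasmid/PEI-loaded wells (plasmid 1.6 μg/ml final) and grown 60 h. Medium with or without glucose followed for 12 h. Fixed, permeabilized cells were stained against Flag or GAL4 tags, and condensate puncta were quantified from 50 random fields per well.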

B1: NEUROD3 (protein, UniProt Q92886 1-237, looked up)
Neurogenin-1: MPARLETCISDLDCASSSGSDLSGFLTDEEDCARLQQAASASGPPAPARRGAPNISRASEVPGAQDDEQERRRRRGRTRVRSEALLHSLRRSRRVKANDRERNRMHNLNAALDALRSVLPSFPDDTKLTKIETLRFAYNYIWALAETLRLADQGLPGGGARERLLPPQCVPCLPGPPSPASDAESWGSGAAAASPLSDPSSPAASEDFTYRPGDPVFSFPSLPKDLLHTTPCFIPYH
Take B1: the “Z score of condensed fraction” value was -0.2856.

B2: NFATC1 (protein, UniProt O95644 1-943, looked up)
Nuclear factor of activated …: MPSTSFPVPSKFPLGPAAAVFGRGETLGPAPRAGGTMKSAEEEHYGYASSNVSPALPLPTAHSTLPAPCHNLQTSTPGIIPPADHPSGYGAALDGGPAGYFLSSGHTRPDGAPALESPRIEITSCLGLYHNNNQFFHDVEVEDVLPSSKRSPSTATLSLPSLEAYRDPSCLSPASSLSSRSCNSEASSYESNYSYPYASPQTSPWQSPCVSPKTTDPEEGFPRGLGACTLLGSPRHSPSTSPRASVTEESWLGARSSRPASPCNKRKYSLNGRQPPYSPHHSPTPSPHGSPRVSVTDDSWLGNTTQYTSSAIVAAINALTTDSSLDLGDGVPVKSRKTTLEQPPSVALKVEPVGEDLGSPPPPADFAPEDYSSFQHIRKGGFCDQYLAVPQHPYQWAKPKPLSPTSYMSPTLPALDWQLPSHSGPYELRIEVQPKSHHRAHYETEGSRGAVKASAGGHPIVQLHGYLENEPLMLQLFIGTADDRLLRPHAFYQVHRITGKTVSTTSHEAILSNTKVLEIPLLPENSMRAVIDCAGILKLRNSDIELRKGETDIGRKNTRVRLVFRVHVPQPSGRTLSLQVASNPIECSQRSAQELPLVEKQSTDSYPVVGGKKMVLSGHNFLQDSKVIFVEKAPDGHHVWEMEAKTDRDLCKPNSLVVEIPPFRNQRITSPVHVSFYVCNGKRKRSQYQRFTYLPANVPIIKTEPTDDYEPAPTCGPVSQGLSPLPRPYYSQQLAMPPDPSSCLVAGFPPCPQRSTLMPAAPGVSPKLHDLSPAAYTKGVASPGHCHLGLPQPAGEAPAVQDVPRPVATHPGSPGQPPPALLPQQVSAPPSSSCPPGLEHSLCPSSPSPPLPPATQEPTCLQPCSPACPPATGRPQHLPSTVRRDESPTAGPRLLPEVHEDGSPNLAPIPVTVKREPEELDQLYLDDVNEIIRNDLSSTSTHS
Regarding B2, the “Z score of condensed fraction” value is listed as -0.245.

B3: NEUROG2 (protein, UniProt Q9H2A3 1-272, looked up)
Neurogenin-2: MFVKSETLELKEEEDVLVLLGSASPALAALTPLSSSADEEEEEEPGASGGARRQRGAEAGQGARGGVAAGAEGCRPARLLGLVHDCKRRPSRARAVSRGAKTAETVQRIKKTRRLKANNRERNRMHNLNAALDALREVLPTFPEDAKLTKIETLRFAHNYIWALTETLRLADHCGGGGGGLPGALFSEAVLLSPGGASAALSSSGDSPSPASTWSCTNSPAPSSSVSSNSTSPYSCTLSPASPAGSDMDYWQPPPPDKHRYAPHLPIARDCI
Turning to B3, the “Z score of condensed fraction” value is -1.044.

B4: NEUROD (protein, UniProt Q13562 1-356, looked up)
Neurogenic differentiation …: MTKSYSESGLMGEPQPQGPPSWTDECLSSQDEEHEADKKEDDLETMNAEEDSLRNGGEEEDEDEDLEEEEEEEEEDDDQKPKRRGPKKKKMTKARLERFKLRRMKANARERNRMHGLNAALDNLRKVVPCYSKTQKLSKIETLRLAKNYIWALSEILRSGKSPDLVSFVQTLCKGLSQPTTNLVAGCLQLNPRTFLPEQNQDMPPHLPTASASFPVHPYSYQSPGLPSPPYGTMDSSHVFHVKPPPHAYSAALEPFFESPLTDCTSPSFDGPLSPPLSINGNFSFKHEPSAEFEKNYAFTMHYPAATLAGAQSHGSIFSGTAAPRCEIPIDNIMSFDSHSHHERVMSAQLNAIFHD
For the molecule B4, the “Z score of condensed fraction” value is reported as 0.06185.

B5: NEUROD4 (protein, UniProt Q9HD90 1-331, looked up)
Neurogenic differentiation …: MSKTFVKSKEMGELVNTPSWMDKGLGSQNEVKEEESRPGTYGMLSSLTEEHDSIEEEEEEEEDGEKPKRRGPKKKKMTKARLERFRARRVKANARERTRMHGLNDALDNLRRVMPCYSKTQKLSKIETLRLARNYIWALSEVLETGQTPEGKGFVEMLCKGLSQPTSNLVAGCLQLGPQSVLLEKHEDKSPICDSAISVHNFNYQSPGLPSPPYGHMETHLLHLKPQVFKSLGESSFGSHLPDCSTPPYEGPLTPPLSISGNFSLKQDGSPDLEKSYSFMPHYPSSSLSSGHVHSTPFQAGTPRYDVPIDMSYDSYPHHGIGTQLNTVFTE
Regarding B5, the “Z score of condensed fraction” value stood at 0.614.

B6: ATF2 (protein, UniProt P16951 1-487, looked up)
Cyclic AMP-dependent …: MSDDKPFLCTAPGCGQRFTNEDHLAVHKHKHEMTLKFGPARNDSVIVADQTPTPTRFLKNCEEVGLFNELASPFENEFKKASEDDIKKMPLDLSPLATPIIRSKIEEPSVVETTHQDSPLPHPESTTSDEKEVPLAQTAQPTSAIVRPASLQVPNVLLTSSDSSVIIQQAVPSPTSSTVITQAPSSNRPIVPVPGPFPLLLHLPNGQTMPVAIPASITSSNVHVPAAVPLVRPVTMVPSVPGIPGPSSPQPVQSEAKMRLKAALTQQHPPVTNGDTVKGHGSGLVRTQSEESRPQSLQQPATSTTETPASPAHTTPQTQNTSGRRRRAANEDPDEKRRKFLERNRAAASRCRQKRKVWVQSLEKKAEDLSSLNGQLQSEVTLLRNEVAQLKQLLLAHKDCPVTAMQKKSGYHTADKDDSSEDLSVPSSPHTEAIQHSSVSTSNGVSSTSKAEAVATSVLTQMADQSTEPALSQIVMAPPSQAQPSGS
Take B6: the “Z score of condensed fraction” value turned out to be 2.014.

B7: MYSM1 (protein, UniProt Q5VVJ2 1-828, looked up)
Deubiquitinase MYSM1: MAAEEADVDIEGDVVAAAGAQPGSGENTASVLQKDHYLDSSWRTENGLIPWTLDNTISEENRAVIEKMLLEEEYYLSKKSQPEKVWLDQKEDDKKYMKSLQKTAKIMVHSPTKPASYSVKWTIEEKELFEQGLAKFGRRWTKISKLIGSRTVLQVKSYARQYFKNKVKCGLDKETPNQKTGHNLQVKNEDKGTKAWTPSCLRGRADPNLNAVKIEKLSDDEEVDITDEVDELSSQTPQKNSSSDLLLDFPNSKMHETNQGEFITSDSQEALFSKSSRGCLQNEKQDETLSSSEITLWTEKQSNGDKKSIELNDQKFNELIKNCNKHDGRGIIVDARQLPSPEPCEIQKNLNDNEMLFHSCQMVEESHEEEELKPPEQEIEIDRNIIQEEEKQAIPEFFEGRQAKTPERYLKIRNYILDQWEICKPKYLNKTSVRPGLKNCGDVNCIGRIHTYLELIGAINFGCEQAVYNRPQTVDKVRIRDRKDAVEAYQLAQRLQSMRTRRRRVRDPWGNWCDAKDLEGQTFEHLSAEELAKRREEEKGRPVKSLKVPRPTKSSFDPFQLIPCNFFSEEKQEPFQVKVASEALLIMDLHAHVSMAEVIGLLGGRYSEVDKVVEVCAAEPCNSLSTGLQCEMDPVSQTQASETLAVRGFSVIGWYHSHPAFDPNPSLRDIDTQAKYQSYFSRGGAKFIGMIVSPYNRNNPLPYSQITCLVISEEISPDGSYRLPYKFEVQQMLEEPQWGLVFEKTRWIIEKYRLSHSSVPMDKIFRRDSDLTCLQKLLECMRKTLSKVTNCFMAEEFLTEIENLFLSNYKSNQENGVTEENCTKELLM
As for B7, the “Z score of condensed fraction” value was -0.7244.

B8: NEUROG3 (protein, UniProt Q9Y4Z2 1-214, looked up)
Neurogenin-3: MTPQPSGAPTVQVTRETERSFPRASEDEVTCPTSAPPSPTRTRGNCAEAEEGGCRGAPRKLRARRGGRSRPKSELALSKQRRSRRKKANDRERNRMHNLNSALDALRGVLPTFPDDAKLTKIETLRFAHNYIWALTQTLRIADHSLYALEPPAPHCGELGSPGGSPGDWGSLYSPVSQAGSLSPAASLEERPGLLGATFSACLSPGSLAFSDFL
With B8, the “Z score of condensed fraction” value came out at 1.376.
